The target of assay [1] is human C1q (human) (UniProt P02745). Put plainly: C1q ELISA: antibody coated in a dilution series, human C1q at 2 µg/mL, read at 450 nm; column C (midpoint, the C value of paragraph 430) of the printed 4-parameter fit; the axis reads Concentration with no unit, the unit of the coated antibody is from the legend paragraph 61; A 0.06, B 2.093, D 1.573, R^2 0.997. On the technique in general: An ELISA detects its analyte on a solid surface through an enzyme-linked reagent.

For assay [2] the target is unchanged. Kind of assay: C1q ELISA: antibody coated in a dilution series, human C1q at 2 µg/mL, read at 450 nm; fit of a flat curve; the unit is from the legend paragraph 61, none on the axis; A 0.06, B 41.873, D 0.09, R^2 0.735.
For assay [3], the target named is human BDCA2 (full-length, cell surface) (human) (UniProt Q8WTT0). Put plainly: FACS dot plot (SSC-H against FL4-H) of the CHO cells with lower BDCA2 expression used in FIG 22B, stained with APC-labelled AC144; gate from about 2x10^1 to 10^4.
For assay [4] the target is unchanged. Kind of assay: FACS dot plot (SSC-H against FL4-H) of the CHO cells EAG2456 T1F2 Clone 34.16.7 with high BDCA2 expression, stained with APC-labelled AC144; cells spread from about 10^1 to 10^4.

As a reminder, the EC50 is the concentration giving half of the maximal effect.

Sequence of human BDCA2 (full-length, cell surface) (human) (Q8WTT0 whole entry): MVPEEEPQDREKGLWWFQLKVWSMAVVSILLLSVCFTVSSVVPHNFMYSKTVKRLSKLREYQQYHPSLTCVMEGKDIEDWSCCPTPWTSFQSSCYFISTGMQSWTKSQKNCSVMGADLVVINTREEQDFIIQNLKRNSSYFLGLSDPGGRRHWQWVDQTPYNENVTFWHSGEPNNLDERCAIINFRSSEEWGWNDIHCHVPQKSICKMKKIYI
Sequence of human C1q (human) (P02745 23-245 limits assumed, chain 1 of 3): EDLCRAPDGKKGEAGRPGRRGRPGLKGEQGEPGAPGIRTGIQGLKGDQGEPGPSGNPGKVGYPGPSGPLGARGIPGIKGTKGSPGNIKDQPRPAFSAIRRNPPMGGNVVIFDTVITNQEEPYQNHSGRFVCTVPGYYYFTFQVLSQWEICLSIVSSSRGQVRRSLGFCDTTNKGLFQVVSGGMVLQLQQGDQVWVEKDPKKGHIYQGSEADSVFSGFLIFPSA
Sequence of human C1q (human) (P02746 28-253 limits assumed, chain 2 of 3, further chain): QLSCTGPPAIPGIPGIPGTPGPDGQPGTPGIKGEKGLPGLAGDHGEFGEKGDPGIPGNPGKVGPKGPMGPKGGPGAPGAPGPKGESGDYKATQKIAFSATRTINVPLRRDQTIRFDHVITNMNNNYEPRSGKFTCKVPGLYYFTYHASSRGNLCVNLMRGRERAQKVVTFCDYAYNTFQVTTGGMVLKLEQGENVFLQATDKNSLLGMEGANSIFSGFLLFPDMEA
Sequence of human C1q (human) (P02747 29-245 limits assumed, chain 3 of 3, further chain): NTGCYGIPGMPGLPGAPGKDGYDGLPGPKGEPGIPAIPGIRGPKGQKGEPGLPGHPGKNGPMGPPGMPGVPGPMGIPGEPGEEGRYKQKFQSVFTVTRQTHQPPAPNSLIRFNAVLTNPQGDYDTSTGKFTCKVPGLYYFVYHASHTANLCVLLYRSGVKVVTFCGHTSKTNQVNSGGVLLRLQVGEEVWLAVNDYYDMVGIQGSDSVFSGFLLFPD
Sequence of 5C8 control (antibody) (heavy): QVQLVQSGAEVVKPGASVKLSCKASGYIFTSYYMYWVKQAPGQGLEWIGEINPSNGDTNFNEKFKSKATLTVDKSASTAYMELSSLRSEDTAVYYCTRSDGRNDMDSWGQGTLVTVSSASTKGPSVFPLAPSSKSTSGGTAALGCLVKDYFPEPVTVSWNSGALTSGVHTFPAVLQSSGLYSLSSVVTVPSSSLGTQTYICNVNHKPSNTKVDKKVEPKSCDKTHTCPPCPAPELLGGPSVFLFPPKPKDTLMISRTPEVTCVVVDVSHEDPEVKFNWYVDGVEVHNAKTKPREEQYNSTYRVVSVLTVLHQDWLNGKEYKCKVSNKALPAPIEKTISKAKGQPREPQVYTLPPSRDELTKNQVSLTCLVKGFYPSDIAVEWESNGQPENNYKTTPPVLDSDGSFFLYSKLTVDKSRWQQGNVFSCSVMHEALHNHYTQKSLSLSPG
Sequence of 5C8 control (antibody) (light): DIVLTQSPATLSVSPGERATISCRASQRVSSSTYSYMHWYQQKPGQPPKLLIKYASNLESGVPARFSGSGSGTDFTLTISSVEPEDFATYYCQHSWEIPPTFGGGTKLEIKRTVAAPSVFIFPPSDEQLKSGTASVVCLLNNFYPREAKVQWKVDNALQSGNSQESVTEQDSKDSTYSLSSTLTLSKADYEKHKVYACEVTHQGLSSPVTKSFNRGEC

For the substance 5C8 control (antibody), the EC50 in assay [1] turned out to be 2.21 µg/mL.
For the substance 5c8 G4P/G1agly (antibody), the C of the 4-parameter fit (midpoint), curve flat in assay [2] turned out to be 0.062 µg/mL.
With “anti-human BDCA2 AC144 mAb (Miltenyi Biotec) (antibody)”, the frequency printed in the gate BDCA2 (percent of cells) in assay [3] was found to be 87.8. For the same substance, the frequency printed in the FL4-positive gate (percent of cells) in assay [4] was 99.4.

The values above are taken from US20180362652A1.
